Laboratory results taken from patent US20250145729A1 (DENALI THERAPEUTICS, published 2025).
Positions count from the first letter of the chain named. Numbers in names are those of the source.

T1: human CD98hc (human, UniProt P08195 109-529)
T1 construct: also called huCD98hc; CD98 heavy chain
T1 sequence: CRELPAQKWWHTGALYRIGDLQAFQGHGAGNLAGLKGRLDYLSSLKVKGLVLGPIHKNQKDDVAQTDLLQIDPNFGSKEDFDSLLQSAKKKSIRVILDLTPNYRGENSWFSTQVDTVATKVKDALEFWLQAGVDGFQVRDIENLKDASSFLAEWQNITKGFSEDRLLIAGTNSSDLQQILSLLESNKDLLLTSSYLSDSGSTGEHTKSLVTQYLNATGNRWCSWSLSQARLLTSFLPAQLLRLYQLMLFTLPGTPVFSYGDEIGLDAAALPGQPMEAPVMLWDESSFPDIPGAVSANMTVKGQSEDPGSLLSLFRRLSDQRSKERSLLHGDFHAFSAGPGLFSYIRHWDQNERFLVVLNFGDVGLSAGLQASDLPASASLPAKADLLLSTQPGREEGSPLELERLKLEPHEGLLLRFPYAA

T2: circularly permuted human TfR apical domain (human)
T2 construct: TfR residues 326-379 stand N-terminal to 194-296, loop 297-325 deleted; also called huTfR Apical Domain
T2 chain: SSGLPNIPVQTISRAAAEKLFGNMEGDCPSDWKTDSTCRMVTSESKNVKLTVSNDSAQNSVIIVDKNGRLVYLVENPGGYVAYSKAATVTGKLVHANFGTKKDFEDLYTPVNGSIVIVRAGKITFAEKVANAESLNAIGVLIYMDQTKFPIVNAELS

T3: circularly permuted cyno TfR apical domain (cynomolgus monkey)
T3 construct: same design as the human construct; also called cyTfR Apical Domain; cynomolgus TfR apical domain
T3 chain: T2 chain with R39K, S45N, N47S, R69G, Y108D, T109S, N153K, E155D

B1: LLB2-10-8.d26 (Fc fusion)
chain: APELLGGPSVFLFPPKPKDTLMISRTPEVTCVVVDVSHEDPEVKFNWYVDGVEVHNAKTKPREEQYNSTYRVVSVLTVLHQDWLNGKEYKCKVSNKALPAPIEKTISKAKGQPREPQVYTLPPSRDELTKNQVSLTCLVKGFYPSDIAVLWNSRFVPENNYKTTPPVLDSDGSFFLYSKLTVDKSRWQQGNVFACNVYHEALHNHYTFKNLALSPGK
notes: Fc part only
B2: LLB2-10-8.d30 (Fc fusion)
chain: B1 chain with R154Q, V156E, P157L
notes: Fc part only
B3: LLB2-10-8.d31 (Fc fusion)
chain: B1 chain with R154Q, F155Y, V156Q, P157L
notes: Fc part only
B4: LLB2-10-8.d32 (Fc fusion)
chain: B1 chain with N152S, R154Q, V156E, P157L
notes: Fc part only
B5: LLB2-10-8.d27 (Fc fusion)
chain: B1 chain with V156Q
notes: Fc part only
B6: LLB2-10-8.d28 (Fc fusion)
chain: B1 chain with N152S, F155Y, P157L
notes: Fc part only
B7: LLB2-10-8.d29 (Fc fusion)
chain: B1 chain with N152S, V156Q, P157L
notes: Fc part only
B8: 42.2.1.2 mono (Fc fusion)
chain 1: APEAAGGPSVFLFPPKPKDTLMISRTPEVTCVVVDVSHEDPEVKFNWYVDGVEVHNAKTKPREEQYNSTYRVVSVLTVLHQDWLNGKEYKCKVSNKALGAPIEKTISKAKGQPREPQVYTLPPSRDELTKNQVSLWCLVKGFYPSDIAVEWFYDDSKLTNYKTTPPVLDSDGSFFLYSKLTVDKSRWQQGNLFACEVMHEALHNHYTYKLLSLSPGK
chain 2: APEAAGGPSVFLFPPKPKDTLMISRTPEVTCVVVDVSHEDPEVKFNWYVDGVEVHNAKTKPREEQYNSTYRVVSVLTVLHQDWLNGKEYKCKVSNKALGAPIEKTISKAKGQPREPQVYTLPPSRDELTKNQVSLSCAVKGFYPSDIAVEWESNGQPENNYKTTPPVLDSDGSFFLVSKLTVDKSRWQQGNVFSCSVMHEALHNHYTQKSLSLSPGK
notes: knob+P329G+LALA with TfR site, hole+P329G+LALA without
B9: 42.2.3.1C mono (Fc fusion)
chain 1: B8 chain 1 with Y153G, D154T, D155N, S156K, L158E
chain 2: B8 chain 2
notes: as for B8
B10: 42.2.1.20 mono (Fc fusion)
chain 1: B8 chain 1 with Y153A, D155A, L158Q, T159R
chain 2: B8 chain 2
notes: as for B8
B11: 42.2.5.2 mono (Fc fusion)
chain 1: B8 chain 1 with Y153S, D155G, L158E, Q189P, G190R, N191G, S212G, L213E
chain 2: B8 chain 2
notes: as for B8
B12: 42.2.3.4 mono (Fc fusion)
chain 1: B8 chain 1 with Y153A, D154G, D155G, S156G, L158E
chain 2: B8 chain 2
notes: as for B8
B13: 42.2.3.3 mono (Fc fusion)
chain 1: B8 chain 1 with Y153T, D155N, S156Y, L158E
chain 2: B8 chain 2
notes: as for B8
B14: 42.2.3.1H mono (Fc fusion)
chain 1: B8 chain 1 with D154G, D155N, S156A, L158E
chain 2: B8 chain 2
notes: as for B8
B15: 42.2.5.4 mono (Fc fusion)
chain 1: B8 chain 1 with Y153S, D155G, L158E, G190Q, N191G, S212G, L213Y
chain 2: B8 chain 2
notes: as for B8
B16: 42.2.3.5 mono (Fc fusion)
chain 1: B8 chain 1 with D154G, D155N, S156G, L158E
chain 2: B8 chain 2
notes: as for B8

What follows are binders tested against T1, human CD98hc (assay: SPR (Biacore)).
Procedure: Variants that bound with measurable affinity from this round of engineering are shown in Table A12 and the corresponding human binding affinity by surface plasmon resonance (SPR) using a Biacore™ machine are shown in Table 9B. Cell binding of the clones was also tested in HeLa cells for huCD98hc binding and CHO cells as a negative control.

Row | binding result | Kd [nM] | Binder
1 | no binding |  | B1
2 |  | 1000 | B2
3 |  | 460 | B3
4 |  | 3100 | B4
5 | no binding |  | B5
6 |  | 4200 | B6
7 |  | 1300 | B7

Target: T2, circularly permuted human TfR apical …
Test: method not named for this table (Biacore elsewhere)

Row | Kd [nM] | Binder
8 | 284 | B8
9 | 1000 | B9
10 | 440 | B10
11 | 180 | B11
12 | 181 | B12
13 | 360 | B13
14 | 220 | B14
15 | 400 | B15
16 | 260 | B16

Target: T3, circularly permuted cyno TfR apical …
Test: as above

Row | Kd [nM] | Binder
17 | 7000 | B8
18 | 10000 | B9
19 | 7000 | B10
20 | 2000 | B11
21 | 4000 | B12
22 | 8000 | B13
23 | 2000 | B14
24 | 6500 | B15
25 | 1800 | B16
